The values that follow come from publication PMC9389042, “Atypical IκB Bcl3 enhances the generation of the NF-κB p52 homodimer” (Frontiers in Cell and Developmental Biology, 2022).

Test [1] concerns the target T1, Recombinant non-tagged human p52 (1-398) (human, UniProt Q00653 1-398).
T1 chain: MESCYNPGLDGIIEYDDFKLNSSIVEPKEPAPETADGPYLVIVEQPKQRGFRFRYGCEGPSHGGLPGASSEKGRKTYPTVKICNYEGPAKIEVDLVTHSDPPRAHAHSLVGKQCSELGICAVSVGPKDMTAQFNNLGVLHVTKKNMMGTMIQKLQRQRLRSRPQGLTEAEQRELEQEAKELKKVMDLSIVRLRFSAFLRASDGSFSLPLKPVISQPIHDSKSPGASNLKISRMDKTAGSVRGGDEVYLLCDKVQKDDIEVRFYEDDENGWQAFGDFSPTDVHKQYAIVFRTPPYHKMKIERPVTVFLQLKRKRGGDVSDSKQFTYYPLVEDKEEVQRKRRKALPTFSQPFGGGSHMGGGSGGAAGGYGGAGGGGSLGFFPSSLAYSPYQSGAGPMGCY
The test is described as follows: BLI; p52:p52 homodimer. For orientation: In BLI a coated tip is dipped into the sample, and binding shifts an interference pattern.

Test [2] addresses T2, Recombinant non-tagged human p50 (1-435) (human, UniProt P19838 1-435).
T2 chain: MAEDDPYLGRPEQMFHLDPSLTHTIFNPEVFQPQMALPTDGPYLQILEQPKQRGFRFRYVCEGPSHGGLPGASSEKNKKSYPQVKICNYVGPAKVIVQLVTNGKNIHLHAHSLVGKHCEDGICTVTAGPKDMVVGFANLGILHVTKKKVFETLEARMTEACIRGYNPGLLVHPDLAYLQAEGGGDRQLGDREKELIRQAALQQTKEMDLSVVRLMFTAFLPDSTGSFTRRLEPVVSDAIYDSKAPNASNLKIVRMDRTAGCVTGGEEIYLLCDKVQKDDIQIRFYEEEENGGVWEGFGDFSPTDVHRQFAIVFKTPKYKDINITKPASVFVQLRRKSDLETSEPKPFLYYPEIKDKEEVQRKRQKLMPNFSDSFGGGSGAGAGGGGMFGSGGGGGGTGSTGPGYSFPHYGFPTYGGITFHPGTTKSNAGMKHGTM
The test is described as follows: BLI; p50:p50 homodimer; duplicate experiment.

Test [3] deals with T1, Recombinant non-tagged human p52 (1-398). The test is described as follows: BLI; p52:p52 homodimer; duplicate experiment.
Test [4] addresses T2, Recombinant non-tagged human p50 (1-435). Kind of test: BLI; p50:p50 homodimer.
Test [5] deals with T1, Recombinant non-tagged human p52 (1-398). Kind of test: BLI; p52:p52 homodimer; duplicate experiment.
The target of test [6] is T2, Recombinant non-tagged human p50 (1-435). Kind of test: BLI; p50:p50 homodimer; duplicate experiment.
Test [7] has the same target. The test is described as follows: BLI; p50:p50 homodimer.
Test [8] deals with T1, Recombinant non-tagged human p52 (1-398). Kind of test: BLI; p52:p52 homodimer.
Test [9] deals with T3, p52 (1-341) fused to a BiFC fragment (human, UniProt Q00653 1-341).
T3 construct: NF-kappaB p52 (processed product of NF-kappaB2/p100), rel homology region, residues 1-341; Three constructs that differ only in the fluorescent-protein fragment are written as one molecule; The methods give limits for p52-VN and p52-CC only; also called p52-VN; p52-CC; not shown: BiFC fragment behind a (GGGGS)2 linker (Venus 1-172 in p52-VN; Cerulean 155-238 in p52-CC; N-terminal fragment of …)
T3 sequence (looked up): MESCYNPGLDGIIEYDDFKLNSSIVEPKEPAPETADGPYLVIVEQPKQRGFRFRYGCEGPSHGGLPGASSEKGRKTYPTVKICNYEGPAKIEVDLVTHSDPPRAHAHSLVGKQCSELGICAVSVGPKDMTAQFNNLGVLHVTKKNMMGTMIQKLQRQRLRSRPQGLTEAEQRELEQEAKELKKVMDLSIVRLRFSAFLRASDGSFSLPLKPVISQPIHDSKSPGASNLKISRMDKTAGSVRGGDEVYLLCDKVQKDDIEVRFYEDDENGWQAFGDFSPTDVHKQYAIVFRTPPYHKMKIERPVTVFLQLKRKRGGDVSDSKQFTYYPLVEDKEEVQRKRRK
Kind of test: split reporter (BiFC, NanoBiT); multicolor BiFC: three BiFC constructs (VN, CC, CN) co-expressed in HEK 293T cells so that two dimers compete, with or without co-expressed Bcl3 or RelB; cells fixed with methanol 48 h after transfection; Venus and Cerulean intensity as percent of the two-construct reference. To be noted: partners not purified.

B1: His-Bcl3(1-446) (natural protein)
chain: MDEGPVDLRTRPKAAGLPGAALPLRKRPLRAPSPEPAAPRGAAGLVVPLDPLRGGCDLPAVPGPPHGLARPEALYYPGALLPLYPTRAMGSPFPLVNLPTPLYPMMCPMEHPLSADIAMATRADEDGDTPLHIAVVQGNLPAVHRLVNLFQQGGRELDIYNNLRQTPLHLAVITTLPSVVRLLVTAGASPMALDRHGQTAAHLACEHRSPTCLRALLDSAAPGTLDLEARNYDGLTALHVAVNTECQETVQLLLERGADIDAVDIKSGRSPLIHAVENNSLSMVQLLLQHGANVNAQMYSGSSALHSASGRGLLPLVRTLVRSGADSSLKNCHNDTPLMVARSRRVIDILRGKATRPASTSQPDPSPDRSANTSPESSSRLSSNGLLSASPSSSPSQSPPRDPPGFPMAPPNFFLPSPSPPAFLPFAGVLRGPGRPVPPSPAPGGS
Consider B1, for which the Kd in [1] is 3.12 nM; in test [2] it was 6.56 nM; in test [3], 2.4 nM; in [4], 6.87 nM. The koff in test [5] worked out at 0.000323 s⁻¹; in [6] it was 0.00033 s⁻¹; in [7] it was 0.000354 s⁻¹; in test [8], 0.000393 s⁻¹.

B2: RelB (1-400) fused to a BiFC fragment (domain or fragment, UniProt Q04863 1-400, looked up)
chain: MPSRRAARESAPELGALGSSDLSSLSLTVSRTTDELEIIDEYIKENGFGLDGTQLSEMPRLVPRGPASLSSVTLGPAAPPPPATPSWSCTLGRLVSPGPCPRPYLVITEQPKQRGMRFRYECEGRSAGSILGESSTEASKTLPAIELRDCGGLREVEVTACLVWKDWPHRVHPHSLVGKDCTDGVCRVRLRPHVSPRHSFNNLGIQCVRKKEIEAAIERKIQLGIDPYNAGSLKNHQEVDMNVVRICFQASYRDQQGHLHRMDPILSEPVYDKKSTNTSELRICRINKESGPCTGGEELYLLCDKVQKEDISVVFSTASWEGRADFSQADVHRQIAIVFKTPPYEDLEISEPVTVNVFLQRLTDGVCSEPLPFTYLPRDHDSYGVDKKRKRGLPDVLGEL
notes: RelB, rel homology region, residues 1-400; Three constructs that differ only in the fluorescent-protein fragment are written as one molecule; The methods give limits for RelB-CN only; also called RelB-CN; RelB-VN; not shown: BiFC fragment behind a (GGGGS)2 linker (Cerulean 1-172 in RelB-CN; N-terminal fragment of Venus in RelB-VN; C-terminal fragment of Cerulean in RelB-CC; one for each …)
Regarding B2, in test [9], the “fold more stable than the p52:p52 homodimer (BiFC fluorescence, without Bcl3)” value was ~20 fold.

The term Kd denotes the equilibrium constant for the complex coming apart. As a reminder, the koff is the rate constant with which the complex falls apart.
